From the supplement of paper PMC5998384 come the findings set out here.

Data set [1] concerns HeLa Kyoto. As to the kind of experiment: solubility in G1/S (NP-40 vs SDS abundance) (log2 ratio); higher = more soluble. The following applies: cell cycle stage: G1/S.
Data set [2] has as its system HeLa Kyoto. Kind of data set: solubility change mitosis vs G1/S (difference of NP-40 vs SDS log2 ratios) (log2 ratio difference); higher = more soluble in mitosis.
In data set [3] the test system is HeLa Kyoto. Kind of data set: melting temperature (median over replicates), in situ; higher = more thermally stable.
The subject of data set [4] is HeLa Kyoto. As to the kind of experiment: thermal stability score vs G1/S (z-score of summed log2 fold changes over temperatures); higher = more thermally stable than in G1/S.
[5] abbreviates: cell cycle stage: early G1 (4.5 h after nocodazole release).
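Wherever melting temperature (median over replicates), in situ is given: HeLa Kyoto cells synchronized by double thymidine or nocodazole block, proteins quantified by TMT10plex mass spectrometry, three independent biological replicates.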
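Wherever solubility change mitosis vs G1/S (difference of NP-40 vs SDS log2 ratios) is given: synchronized HeLa Kyoto cells (double thymidine block for G1/S, nocodazole release for mitosis), protein amounts in NP-40 versus SDS lysates quantified by mass spectrometry, three biological replicates.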
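Wherever solubility in G1/S (NP-40 vs SDS abundance) is given: HeLa Kyoto cells arrested at G1/S by double thymidine block, proteins quantified by TMT10plex mass spectrometry in mild NP-40 versus SDS extracts, three biological replicates.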
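Wherever thermal stability score vs G1/S (z-score of summed log2 fold changes over temperatures) is given: synchronized HeLa Kyoto cells, proteins quantified by TMT10plex mass spectrometry, three biological replicates, mitosis taken 0.5 h after nocodazole release, G1/S directly after double thymidine block.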

Take “MAFRGWRPPPPPLLLLLLWVTGQAAPVAGLGSDAELQIERRFVPDECPRTVRSGDFVRYHYVGTFPDGQKFDSSYDRDSTFNVFVGKGQLITGMDQALVGMCVNERRFVKIPPKLAYGNEGVSGVIPPNSVLHFDVLLMDIWNSEDQVQIHTYFKPPSCPRTIQVSDFVRYHYNGTFLDGTLFDSSHNRMKTYDTYVGIGWLIPGMDKGLLGMCVGEKRIITIPPFLAYGEDGDGKDIPGQASLVFDVALLDLHNPKDSISIENKVVPENCERISQSGDFLRYHYNGTLLDGTLFDSSYSRNRTFDTYIGQGYVIPGMDEGLLGVCIGEKRRIVVPPHLGYGEEGRGNIPGSAVLVFDIHVIDFHNPSDSISITSHYKPPDCSVLSKKGDYLKYHYNASLLDGTLLDSTWNLGKTYNIVLGSGQVVLGMDMGLREMCVGEKRTVIIPPHLGYGEAGVDGEVPGSAVLVFDIELLELVAGLPEGYMFIWNGEVSPNLFEEIDKDGNGEVLLEEFSEYIHAQVASGKGKLAPGFDAELIVKNMFTNQDRNGDGKVTAEEFKLKDQEAKHDEL [FKBP9]”: the “solubility in G1/S (log2)” value in the data set on HeLa Kyoto [1] was 0.21. For the same sequence, the “solubility change mitosis (log2)” value in the data set on HeLa Kyoto [2] was -0.0483. In addition, the melting temperature with HeLa Kyoto [3] (cell cycle stage: G1/S) is 53.7 °C; with HeLa Kyoto [3] (cell cycle stage: mitosis), 54.5 °C. In addition, the thermal stability score in the data set on HeLa Kyoto [4] (setting [5]) is 4.29; with HeLa Kyoto [4] (cell cycle stage: mitosis) it was 4.83.

In the case of “MAFVPVIPESYSHVLAEFESLDPLLSALRLDSSRLKCTSIAVSRKWLALGSSGGGLHLIQKEGWKHRLFLSHREGAISQVACCLHDDDYVAVATSQGLVVVWELNQERRGKPEQMYVSSEHKGRRVTALCWDTAILRVFVGDHAGKVSAIKLNTSKQAKAAAAFVMFPVQTITTVDSCVVQLDYLDGRLLISSLTRSFLCDTEREKFWKIGNKERDGEYGACFFPGRCSGGQQPLIYCARPGSRMWEVNFDGEVISTHQFKKLLSLPPLPVITLRSEPQYDHTAGSSQSLSFPKLLHLSEHCVLTWTERGIYIFIPQNVQVLLWSEVKDIQDVAVCRNELFCLHLNGKVSHLSLISVERCVERLLRRGLWNLAARTCCLFQNSVIASRARKTLTADKLEHLKSQLDHGTYNDLISQLEELILKFEPLDSACSSRRSSISSHESFSILDSGIYRIISSRRGSQSDEDSCSLHSQTLSEDERFKEFTSQQEEDLPDQCCGSHGNEDNVSHAPVMFETDKNETFLPFGIPLPFRSPSPLVSLQAVKESVSSFVRKTTEKIGTLHTSPDLKVRPELRGDEQSCEEDVSSDTCPKEEDTEEEKEVTSPPPEEDRFQELKVATAEAMTKLQDPLVLFESESLRMVLQEWLSHLEKTFAMKDFSGVSDTDNSSMKLNQDVLLVNESKKGILDEDNEKEKRDSLGNEESVDKTACECVRSPRESLDDLFQICSPCAIASGLRNDLAELTTLCLELNVLNSKIKSTSGHVDHTLQQYSPEILACQFLKKYFFLLNLKRAKESIKLSYSNSPSVWDTFIEGLKEMASSNPVYMEMEKGDLPTRLKLLDDEVPFDSPLLVVYATRLYEKFGESALRSLIKFFPSILPSDIIQLCHHHPAEFLAYLDSLVKSRPEDQRSSFLESLLQPESLRLDWLLLAVSLDAPPSTSTMDDEGYPRPHSHLLSWGYSQLILHLIKLPADFITKEKMTDICRSCGFWPGYLILCLELERRREAFTNIVYLNDMSLMEGDNGWIPETVEEWKLLLHLIQSKSTRPAPQESLNGSLSDGPSPINVENVALLLAKAMGPDRAWSLLQECGLALELSEKFTRTCDILRIAEKRQRALIQSMLEKCDRFLWSQQA [HPS5]”, the “solubility in G1/S (log2)” value with HeLa Kyoto [1] is -0.142. Further, in the data set with HeLa Kyoto [2], the “solubility change mitosis (log2)” value is -0.108. Further, the melting temperature in the data set on HeLa Kyoto [3] (cell cycle stage: G1/S) amounted to 48.6 °C; with HeLa Kyoto [3] (cell cycle stage: mitosis), 49.5 °C. Further, the thermal stability score with HeLa Kyoto [4] (setting [5]) was 1.53; with HeLa Kyoto [4] (cell cycle stage: mitosis) it was 1.55.

On to “MAGAGPAPGLPGAGGPVVPGPGAGIPGKSGEERLKEMEAEMALFEQEVLGAPVPGIPTAVPAVPTVPTVPTVEAMQVPAAPVIRPIIATNTYQQVQQTLEARAAAAATVVPPMVGGPPFVGPVGFGPGDRSHLDSPEAREAMFLRRAAVAPQRAPILRPAFVPHVLQRADSALSSAAAGPRPMALRPPHQALVGPPLPGPPGPPMMLPPMARAPGPPLGSMAALRPPLEEPAAPRELGLGLGLGLKEKEEAVVAAAAGLEEASAAVAVGAGGAPAGPAVIGPSLPLALAMPLPEPEPLPLPLEVVRGLLPPLRIPELLSLRPRPRPPRPEPPPGLMALEVPEPLGEDKKKGKPEKLKRCIRTAAGSSWEDPSLLEWDADDFRIFCGDLGNEVNDDILARAFSRFPSFLKAKVIRDKRTGKTKGYGFVSFKDPSDYVRAMREMNGKYVGSRPIKLRKSMWKDRNLDVVRKKQKEKKKLGLR [RBM42]”, for which the “solubility in G1/S (log2)” value with HeLa Kyoto [1] was 0.0912. Besides, the “solubility change mitosis (log2)” value with HeLa Kyoto [2] amounted to 0.019. For the same sequence, the melting temperature was 51.6 °C in the data set with HeLa Kyoto [3] (cell cycle stage: G1/S) and 50.1 °C with HeLa Kyoto [3] (cell cycle stage: mitosis). Also, the figures for the thermal stability score with HeLa Kyoto [4] (setting [5]) and in the data set with HeLa Kyoto [4] (cell cycle stage: mitosis) were -2.37 and -2.6, respectively.

Turning to “MAGAIIENMSTKKLCIVGGILLVFQIIAFLVGGLIAPGPTTAVSYMSVKCVDARKNHHKTKWFVPWGPNHCDKIRDIEEAIPREIEANDIVFSVHIPLPHMEMSPWFQFMLFILQLDIAFKLNNQIRENAEVSMDVSLAYRDDAFAEWTEMAHERVPRKLKCTFTSPKTPEHEGRYYECDVLPFMEIGSVAHKFYLLNIRLPVNEKKKINVGIGEIKDIRLVGIHQNGGFTKVWFAMKTFLTPSIFIIMVWYWRRITMMSRPPVLLEKVIFALGISMTFINIPVEWFSIGFDWTWMLLFGDIRQGIFYAMLLSFWIIFCGEHMMDQHERNHIAGYWKQVGPIAVGSFCLFIFDMCERGVQLTNPFYSIWTTDIGTELAMAFIIVAGICLCLYFLFLCFMVFQVFRNISGKQSSLPAMSKVRRLHYEGLIFRFKFLMLITLACAAMTVIFFIVSQVTEGHWKWGGVTVQVNSAFFTGIYGMWNLYVFALMFLYAPSHKNYGEDQSNGDLGVHSGEELQLTTTITHVDGPTEIYKLTRKEAQE [WLS]”, the “solubility in G1/S (log2)” value in the data set with HeLa Kyoto [1] was -0.178. Moreover, in the data set on HeLa Kyoto [2], the “solubility change mitosis (log2)” value was -0.236. Also, the melting temperature in the data set with HeLa Kyoto [3] (cell cycle stage: G1/S) and with HeLa Kyoto [3] (cell cycle stage: mitosis) was 54.2 °C throughout. Further, the thermal stability score with HeLa Kyoto [4] (setting [5]) is 0.834; with HeLa Kyoto [4] (cell cycle stage: mitosis), 2.64.

Turning to “MAGDSEQTLQNHQQPNGGEPFLIGVSGGTASGKSSVCAKIVQLLGQNEVDYRQKQVVILSQDSFYRVLTSEQKAKALKGQFNFDHPDAFDNELILKTLKEITEGKTVQIPVYDFVSHSRKEETVTVYPADVVLFEGILAFYSQEVRDLFQMKLFVDTDADTRLSRRVLRDISERGRDLEQILSQYITFVKPAFEEFCLPTKKYADVIIPRGADNLVAINLIVQHIQDILNGGPSKRQTNGCLNGYTPSRKRQASESSSRPH [UCK2]”, in the data set on HeLa Kyoto [1], the “solubility in G1/S (log2)” value was determined as 0.28. In addition, the “solubility change mitosis (log2)” value with HeLa Kyoto [2] stood at 0.265. The melting temperature in the data set with HeLa Kyoto [3] (cell cycle stage: G1/S) worked out at 52.2 °C; with HeLa Kyoto [3] (cell cycle stage: mitosis), 52.9 °C. Moreover, the thermal stability score is 0.367 in the data set with HeLa Kyoto [4] (setting [5]) and -1.36 in the data set on HeLa Kyoto [4] (cell cycle stage: mitosis).
